# Data from patent US20020164620A1, “Method for identifying compounds modulating sister chromatid separation” (Boehringer Ingelheim International GmbH, priority 2001, published 2002).
# B1: WT-securin: human securin expressed in E. coli and purified, the wildtype protein (protein)
# chain: MATLIYVDKENGEPGTRVVAKDGLKLGSGPSIKALDGRSQVSTPRFGKTFDAPPALPKATRKALGTVNRATEKSVKTKGPLKQKQPSFSAKKMTEKTVKAKSSVPASDDAYPEIEKFFPFNPLDFESFDLPEEHQIAHLPLSGVPLMILDEERELEKLFQLGPPSPVKMPSPPWESNLLQSPSSILSTLDVELPPVCCDIDI
# Key:
# human separase [1] = experiment: SCC1 in vitro cleavage assay; assay type: biochemical; conditions: substance added to mitotically activated separase immunoprecipitates before SCC1-myc reaction mix
# Description: (§1) 30 microliter beads were incubated with 40 μg bacterially expressed wildtype securin, destruction box deleted form of securin (Gmachl et al., 2000) or BSA diluted in XB+1 mM DTT for 40 min at RT. Subsequently the beads were washed with XB+1 mM DTT and with TBS+0.5 M NaCl+1 mM DTT+0.5% TWEEN20, followed by one wash with XB+1 mM DTT. To control the rebinding of securin an aliquot of 5 μl was taken per assay and subsequently analysed by immunoblotting with antibodies against separase and securin.
# The beads were used for the SCC1 in vitro cleavage assay: 20 μl beads were mixed with 30 μl of the following SCC1 in vitro translation mix (SCC1 myc IVT+1 μl PLK-GST+0.3 μl […], 0.3 μl 100 mM ATP, 0.12 μl 250 mM EGTA, 13.78 μl XB+1 mM DTT) and incubated at 22° C. and 1200 rpm. 5 μl were taken per time point, the reaction was stopped by addition of SDS loading buffer. Samples were analyzed by immunoblotting with mouse monoclonal antibodies against myc (9E10).
# (§2) B. Separase immunoprecipitates were incubated with 100 μM Biotin-SVEQGR-amk or with DMSO prior mitotic activation. Incubation for 10 minutes, 22° C. and 1000 rpm. After washing twice in XB+1 mM DTT the activation was performed in mitotic Xenopus egg extracts.
# Interphase Xenopus egg extracts were driven into mitosis in the presence of 1 mM Biotin-SVEQGR-amk or DMSO. […]
# Target sequence in this assay (Q14674 1536-2120 limits assumed): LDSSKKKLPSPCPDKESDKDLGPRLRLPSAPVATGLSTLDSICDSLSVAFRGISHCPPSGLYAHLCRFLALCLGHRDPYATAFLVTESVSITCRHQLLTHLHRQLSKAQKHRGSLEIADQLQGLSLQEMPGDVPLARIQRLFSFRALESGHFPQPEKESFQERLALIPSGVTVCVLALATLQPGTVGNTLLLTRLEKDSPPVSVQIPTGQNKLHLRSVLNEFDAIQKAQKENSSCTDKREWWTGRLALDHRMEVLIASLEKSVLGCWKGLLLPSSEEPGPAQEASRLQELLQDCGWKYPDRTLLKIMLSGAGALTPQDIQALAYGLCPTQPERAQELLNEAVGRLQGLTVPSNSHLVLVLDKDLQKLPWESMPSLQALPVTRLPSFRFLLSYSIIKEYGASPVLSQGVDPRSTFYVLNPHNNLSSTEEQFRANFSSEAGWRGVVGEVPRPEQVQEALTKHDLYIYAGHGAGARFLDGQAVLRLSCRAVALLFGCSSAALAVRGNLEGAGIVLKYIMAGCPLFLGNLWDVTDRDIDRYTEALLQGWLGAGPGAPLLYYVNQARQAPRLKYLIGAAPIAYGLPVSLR
# human separase [2] = experiment: Rebinding of recombinant securin to mitotically activated separase immunoprecipitates; assay type: binding; conditions: separase activated in mitotic Xenopus extracts, mostly cleaved form
# Description: as §1
# Target sequence in this assay (Q14674 1-1486 limits assumed): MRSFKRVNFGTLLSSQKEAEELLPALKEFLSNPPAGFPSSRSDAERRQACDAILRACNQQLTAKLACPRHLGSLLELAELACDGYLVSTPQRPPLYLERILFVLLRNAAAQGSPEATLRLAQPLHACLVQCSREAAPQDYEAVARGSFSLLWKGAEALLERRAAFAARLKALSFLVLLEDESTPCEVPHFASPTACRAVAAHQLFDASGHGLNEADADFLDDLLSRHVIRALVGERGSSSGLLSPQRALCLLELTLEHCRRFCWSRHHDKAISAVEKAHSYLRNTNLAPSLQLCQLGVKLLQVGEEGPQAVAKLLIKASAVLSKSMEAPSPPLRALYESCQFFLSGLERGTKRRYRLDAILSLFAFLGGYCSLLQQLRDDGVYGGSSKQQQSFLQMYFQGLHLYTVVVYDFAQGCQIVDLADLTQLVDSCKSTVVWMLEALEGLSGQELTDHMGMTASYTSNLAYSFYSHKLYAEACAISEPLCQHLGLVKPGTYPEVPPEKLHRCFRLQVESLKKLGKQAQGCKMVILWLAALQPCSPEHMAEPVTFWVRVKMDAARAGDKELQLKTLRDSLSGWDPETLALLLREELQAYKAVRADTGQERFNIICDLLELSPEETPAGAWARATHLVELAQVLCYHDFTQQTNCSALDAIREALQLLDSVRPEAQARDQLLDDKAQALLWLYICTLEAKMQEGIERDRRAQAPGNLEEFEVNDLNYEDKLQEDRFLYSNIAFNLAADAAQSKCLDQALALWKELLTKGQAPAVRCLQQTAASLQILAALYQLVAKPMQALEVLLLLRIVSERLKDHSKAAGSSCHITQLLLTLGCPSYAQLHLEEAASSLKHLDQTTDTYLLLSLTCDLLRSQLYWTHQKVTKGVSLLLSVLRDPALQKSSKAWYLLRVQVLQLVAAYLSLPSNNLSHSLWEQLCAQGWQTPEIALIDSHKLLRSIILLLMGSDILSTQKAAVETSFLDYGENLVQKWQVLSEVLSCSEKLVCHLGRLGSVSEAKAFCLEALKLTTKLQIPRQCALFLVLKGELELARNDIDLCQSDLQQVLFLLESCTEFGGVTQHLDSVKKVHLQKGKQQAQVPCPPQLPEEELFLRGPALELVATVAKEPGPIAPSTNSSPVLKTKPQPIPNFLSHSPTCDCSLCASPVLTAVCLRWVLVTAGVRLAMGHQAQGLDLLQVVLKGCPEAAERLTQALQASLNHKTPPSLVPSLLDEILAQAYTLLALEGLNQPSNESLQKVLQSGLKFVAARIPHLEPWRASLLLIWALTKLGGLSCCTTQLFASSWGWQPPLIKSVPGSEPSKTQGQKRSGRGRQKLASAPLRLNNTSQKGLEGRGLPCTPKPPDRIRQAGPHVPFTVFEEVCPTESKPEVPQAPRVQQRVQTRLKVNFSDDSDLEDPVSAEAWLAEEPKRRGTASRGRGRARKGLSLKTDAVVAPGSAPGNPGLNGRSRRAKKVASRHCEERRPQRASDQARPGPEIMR
# Target sequence in this assay (Q14674 1536-2120 limits assumed): as the sequence (Q14674 1536-2120 limits assumed) above
# FIG. 1A: Separase immunoprecipitates (separase IP) obtained from Nocodazole arrested HeLa cells and bound by antibodies against the C-terminus of separase coupled to beads were activated in mitotic Xenopus egg extracts (separase IP^mitotic). Mitotically activated separase immunoprecipitates were either incubated in buffer, wildtype securin, destruction box deleted securin or in BSA. Aliquots were taken and analysed by immunoblotting with antibodies against separase and securin.
# human separase [3] = experiment: Covalent labelling of separase forms by biotin peptide (avidin blot); assay type: binding; conditions: recombinant securin bound to cleaved active separase, then human peptide inhibitor (FIG. 4D)
# Description: as §2
# Target sequence in this assay (Q14674 1536-2120 limits assumed): as above
# Interphase Xenopus egg extracts were driven into mitosis in the presence of 1 mM Biotin-SVEQGR-amk or DMSO. Those mitotic Xenopus egg extracts were used to activate a batch of separase immunoprecipitates.
# Biotin labeled peptides were detected via immunoblotting according to Faleiro et al., 1997.
# C. […] After 10 min incubation at 22° C. and 1250 rpm beads were again washed and analyzed by immunoblotting.
# FIG. 4B: Separase IPs (see A) were either preincubated with Biotin-SVEQGR-amk (preinc. with inh. peptide) or with DMSO (preinc. with DMSO), subsequently washed and aliquots were taken. […] All samples were analysed by immunoblotting with avidin.
# FIG. 4D: Activated separase immunoprecipitates bound by antibodies against the C-terminus of separase to beads were first incubated with recombinant securin or, for control, with recombinant truncated cyclinB. […] Thereafter, the immunoprecipitates were again washed and analyzed by immunoblotting.
molecule,measurement,setting,value
B1,SCC1 cleavage by separase,human separase [1],no cleavage of SCC1 was detected
same,binding of securin to separase,human separase [2],able to bind to separase
same,binding of peptide inhibitors to the active site of separase,human separase [3],prevented the binding of peptide inhibitors to the active site of separase
